Laboratory results published in the supplement of paper PMC10065799, “High-throughput profiling of sequence recognition by tyrosine kinases and SH2 domains using bacterial peptide display” (eLife, 2023).

Legend:
[1] = target: c-Src SH2; assay: SH2 binding enrichment of the phosphorylated peptide, bacterial display (enrichment ratio); higher = better substrate or ligand; peptides without Tyr show the background
[2] = target: SHP2-C SH2; assay: as above
[3] = target: Grb2 SH2 (UniProt P62993); assay: as above
[4] = target: Jak2 (UniProt O60674); assay: phosphorylation enrichment, bacterial display (enrichment ratio); higher = better substrate or ligand; peptides without Tyr show the background
[5] = target: Fes (UniProt P07332); assay: as above
[6] = target: EPHB2 (UniProt P29323); assay: as above
[7] = target: FGFR1 (UniProt P11362); assay: as above
[8] = test system: AncSZ; assay: as above
[9] = target: MERTK (UniProt Q12866); assay: as above
[10] = target: Hck (UniProt P08631); assay: as above
[11] = target: EPHB1 (UniProt P54762); assay: as above
[12] = target: FGFR3 (UniProt P22607); assay: as above
[13] = test system: c-Abl (mouse); assay: as above
[14] = target: Fyn (UniProt P06241); assay: as above
[15] = test system: c-Src; assay: as above
[16] = test system: Fer (mouse); assay: as above
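Wherever SH2 binding enrichment of the phosphorylated peptide, bacterial display is given: peptide library displayed on the E. coli surface as eCPX fusions, selected cells deep-sequenced, score is each peptide's frequency after selection divided by its frequency in the input.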
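Wherever phosphorylation enrichment, bacterial display is given: 11-residue human phosphosite peptides and single-mutation variants displayed on the E. coli surface, counted by deep sequencing, each peptide's frequency after selection divided by its frequency in the unselected input library; frequency after pTyr selection over input frequency; kinase dosed for 20-30% of maximal phosphorylation in three min.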

FGFR3, sequence (P22607 whole entry, looked up): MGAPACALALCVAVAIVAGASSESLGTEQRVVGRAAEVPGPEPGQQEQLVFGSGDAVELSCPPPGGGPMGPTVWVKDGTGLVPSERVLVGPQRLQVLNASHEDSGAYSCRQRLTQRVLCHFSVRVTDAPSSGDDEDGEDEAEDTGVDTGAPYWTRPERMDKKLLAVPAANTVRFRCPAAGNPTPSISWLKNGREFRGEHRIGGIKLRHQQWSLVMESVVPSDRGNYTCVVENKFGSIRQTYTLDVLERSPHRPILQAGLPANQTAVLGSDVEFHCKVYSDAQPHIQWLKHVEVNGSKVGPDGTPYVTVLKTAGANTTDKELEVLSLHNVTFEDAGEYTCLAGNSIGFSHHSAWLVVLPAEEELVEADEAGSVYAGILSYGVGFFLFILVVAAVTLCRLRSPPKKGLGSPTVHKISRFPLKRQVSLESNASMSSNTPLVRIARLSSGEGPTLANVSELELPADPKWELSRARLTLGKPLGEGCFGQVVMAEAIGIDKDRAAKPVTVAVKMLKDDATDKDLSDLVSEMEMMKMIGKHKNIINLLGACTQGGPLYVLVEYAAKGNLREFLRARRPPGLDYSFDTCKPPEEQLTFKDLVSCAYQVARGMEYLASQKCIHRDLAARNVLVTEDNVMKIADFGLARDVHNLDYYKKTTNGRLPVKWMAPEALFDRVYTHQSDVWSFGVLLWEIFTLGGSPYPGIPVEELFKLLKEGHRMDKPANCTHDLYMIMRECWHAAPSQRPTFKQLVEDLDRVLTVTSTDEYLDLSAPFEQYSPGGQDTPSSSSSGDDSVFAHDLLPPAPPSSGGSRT
Grb2 SH2, sequence (P62993 whole entry, looked up): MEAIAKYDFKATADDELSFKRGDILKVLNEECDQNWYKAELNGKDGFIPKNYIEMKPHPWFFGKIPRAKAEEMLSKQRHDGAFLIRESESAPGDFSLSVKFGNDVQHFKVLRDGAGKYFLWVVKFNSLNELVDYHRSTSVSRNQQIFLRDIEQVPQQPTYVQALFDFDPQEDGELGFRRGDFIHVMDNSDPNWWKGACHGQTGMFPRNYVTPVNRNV
Hck, sequence (P08631 whole entry, looked up): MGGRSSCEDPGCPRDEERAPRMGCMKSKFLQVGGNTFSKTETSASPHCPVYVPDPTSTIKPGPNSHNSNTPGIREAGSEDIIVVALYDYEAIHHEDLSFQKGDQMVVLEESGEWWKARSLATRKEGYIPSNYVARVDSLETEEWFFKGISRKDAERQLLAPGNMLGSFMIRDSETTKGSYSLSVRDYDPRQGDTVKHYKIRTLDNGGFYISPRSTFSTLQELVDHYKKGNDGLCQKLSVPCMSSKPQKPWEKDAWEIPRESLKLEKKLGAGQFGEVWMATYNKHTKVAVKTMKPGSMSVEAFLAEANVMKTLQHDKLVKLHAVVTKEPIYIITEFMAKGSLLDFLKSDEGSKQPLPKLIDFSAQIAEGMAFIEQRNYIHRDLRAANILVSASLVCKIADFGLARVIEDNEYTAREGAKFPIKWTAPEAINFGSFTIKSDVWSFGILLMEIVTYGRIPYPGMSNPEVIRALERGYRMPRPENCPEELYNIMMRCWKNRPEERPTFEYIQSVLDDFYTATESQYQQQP
MERTK, sequence (Q12866 whole entry, looked up): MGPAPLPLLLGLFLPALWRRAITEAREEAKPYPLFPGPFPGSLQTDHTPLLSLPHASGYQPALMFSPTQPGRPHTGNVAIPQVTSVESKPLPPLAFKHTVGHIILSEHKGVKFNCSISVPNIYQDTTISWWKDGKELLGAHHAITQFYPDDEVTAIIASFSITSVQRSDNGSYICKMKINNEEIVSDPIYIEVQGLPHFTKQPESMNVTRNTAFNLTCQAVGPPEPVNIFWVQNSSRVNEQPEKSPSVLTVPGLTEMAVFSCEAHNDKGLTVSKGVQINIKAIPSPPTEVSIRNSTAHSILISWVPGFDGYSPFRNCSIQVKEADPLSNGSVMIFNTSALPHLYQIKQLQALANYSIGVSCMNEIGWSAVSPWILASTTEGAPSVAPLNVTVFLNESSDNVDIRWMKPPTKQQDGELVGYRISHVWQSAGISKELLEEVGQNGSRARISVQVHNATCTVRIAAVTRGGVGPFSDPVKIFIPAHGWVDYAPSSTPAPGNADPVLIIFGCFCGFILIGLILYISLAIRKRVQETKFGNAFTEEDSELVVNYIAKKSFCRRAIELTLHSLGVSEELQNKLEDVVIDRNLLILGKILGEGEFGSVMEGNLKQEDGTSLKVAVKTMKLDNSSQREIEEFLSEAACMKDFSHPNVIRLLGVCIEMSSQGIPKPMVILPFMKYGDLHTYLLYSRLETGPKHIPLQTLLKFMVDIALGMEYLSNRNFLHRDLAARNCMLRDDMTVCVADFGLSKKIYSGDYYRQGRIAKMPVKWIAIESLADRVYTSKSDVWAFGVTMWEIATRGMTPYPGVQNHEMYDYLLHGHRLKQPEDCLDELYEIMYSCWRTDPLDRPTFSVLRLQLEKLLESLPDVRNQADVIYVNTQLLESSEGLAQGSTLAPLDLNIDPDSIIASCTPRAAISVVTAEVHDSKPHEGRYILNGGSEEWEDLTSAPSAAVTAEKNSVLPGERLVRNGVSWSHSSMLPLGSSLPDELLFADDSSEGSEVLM
FGFR1, sequence (P11362 whole entry, looked up): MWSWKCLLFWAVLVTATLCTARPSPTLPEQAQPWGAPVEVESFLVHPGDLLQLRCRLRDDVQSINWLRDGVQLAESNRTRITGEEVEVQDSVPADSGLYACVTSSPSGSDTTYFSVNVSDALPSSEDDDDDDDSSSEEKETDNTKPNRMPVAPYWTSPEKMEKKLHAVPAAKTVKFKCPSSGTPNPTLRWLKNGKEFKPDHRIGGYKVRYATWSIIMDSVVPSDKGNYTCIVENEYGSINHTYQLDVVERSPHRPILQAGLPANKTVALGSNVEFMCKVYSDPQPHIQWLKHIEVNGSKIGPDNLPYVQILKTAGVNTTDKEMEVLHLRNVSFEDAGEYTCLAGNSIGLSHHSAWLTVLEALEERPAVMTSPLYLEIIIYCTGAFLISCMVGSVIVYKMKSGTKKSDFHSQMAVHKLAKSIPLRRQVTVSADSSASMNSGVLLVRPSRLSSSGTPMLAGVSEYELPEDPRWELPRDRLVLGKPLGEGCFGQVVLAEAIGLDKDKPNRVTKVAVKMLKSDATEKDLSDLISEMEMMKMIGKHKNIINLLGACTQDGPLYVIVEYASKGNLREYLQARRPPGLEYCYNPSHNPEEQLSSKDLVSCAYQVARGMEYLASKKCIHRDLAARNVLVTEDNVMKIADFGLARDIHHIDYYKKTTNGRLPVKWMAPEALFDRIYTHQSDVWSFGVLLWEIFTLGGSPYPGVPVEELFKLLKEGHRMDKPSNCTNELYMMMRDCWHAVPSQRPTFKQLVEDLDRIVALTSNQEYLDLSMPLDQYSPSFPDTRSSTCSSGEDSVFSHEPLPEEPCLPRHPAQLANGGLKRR
EPHB1, sequence (P54762 whole entry, looked up): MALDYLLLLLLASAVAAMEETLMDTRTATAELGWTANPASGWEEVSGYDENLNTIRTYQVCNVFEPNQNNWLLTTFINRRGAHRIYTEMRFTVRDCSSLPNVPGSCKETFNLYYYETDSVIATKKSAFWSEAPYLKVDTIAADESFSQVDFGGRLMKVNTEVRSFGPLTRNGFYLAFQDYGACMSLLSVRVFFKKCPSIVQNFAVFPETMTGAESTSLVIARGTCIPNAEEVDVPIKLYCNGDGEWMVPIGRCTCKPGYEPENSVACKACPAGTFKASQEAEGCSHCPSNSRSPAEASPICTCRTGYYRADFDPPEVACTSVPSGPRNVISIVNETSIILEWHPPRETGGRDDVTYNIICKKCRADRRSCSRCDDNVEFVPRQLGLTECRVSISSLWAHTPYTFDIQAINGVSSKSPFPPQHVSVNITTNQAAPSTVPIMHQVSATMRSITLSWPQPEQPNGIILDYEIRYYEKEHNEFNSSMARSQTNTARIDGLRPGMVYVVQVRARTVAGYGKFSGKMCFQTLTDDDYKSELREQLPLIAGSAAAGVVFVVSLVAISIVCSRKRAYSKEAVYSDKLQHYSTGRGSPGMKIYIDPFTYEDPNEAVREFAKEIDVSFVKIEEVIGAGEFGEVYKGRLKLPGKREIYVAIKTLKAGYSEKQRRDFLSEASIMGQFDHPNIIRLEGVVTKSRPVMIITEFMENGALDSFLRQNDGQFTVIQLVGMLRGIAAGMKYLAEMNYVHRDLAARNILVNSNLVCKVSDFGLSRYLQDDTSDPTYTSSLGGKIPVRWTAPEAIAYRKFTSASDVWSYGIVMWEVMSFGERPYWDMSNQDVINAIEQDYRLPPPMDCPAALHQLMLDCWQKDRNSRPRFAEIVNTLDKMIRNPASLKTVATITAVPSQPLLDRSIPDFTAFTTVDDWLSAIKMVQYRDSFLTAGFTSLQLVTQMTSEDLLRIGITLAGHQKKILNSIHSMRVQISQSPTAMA
Fyn, sequence (P06241 whole entry, looked up): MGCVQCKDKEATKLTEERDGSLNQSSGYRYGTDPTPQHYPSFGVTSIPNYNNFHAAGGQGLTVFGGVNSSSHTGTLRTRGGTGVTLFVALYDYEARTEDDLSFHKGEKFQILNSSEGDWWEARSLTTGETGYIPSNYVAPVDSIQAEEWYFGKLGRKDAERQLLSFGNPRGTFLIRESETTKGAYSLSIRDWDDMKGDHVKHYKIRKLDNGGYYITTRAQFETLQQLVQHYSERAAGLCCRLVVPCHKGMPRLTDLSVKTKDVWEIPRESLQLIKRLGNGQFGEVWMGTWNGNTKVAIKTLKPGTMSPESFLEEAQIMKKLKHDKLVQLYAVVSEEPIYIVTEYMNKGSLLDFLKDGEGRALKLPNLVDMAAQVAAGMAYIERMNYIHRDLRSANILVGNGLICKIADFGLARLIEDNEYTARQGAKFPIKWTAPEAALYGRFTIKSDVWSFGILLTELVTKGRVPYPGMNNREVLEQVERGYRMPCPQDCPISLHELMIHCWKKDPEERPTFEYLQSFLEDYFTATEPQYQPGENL

Sequence | SH2 binding enrichment [1] | SH2 binding enrichment [2] | SH2 binding enrichment [3] | phosphorylation enrichment [4] | phosphorylation enrichment [5] | phosphorylation enrichment [6] | phosphorylation enrichment [7] | phosphorylation enrichment [8] | phosphorylation enrichment [9] | phosphorylation enrichment [10] | phosphorylation enrichment [11] | phosphorylation enrichment [12] | phosphorylation enrichment [13] | phosphorylation enrichment [14] | phosphorylation enrichment [15] | phosphorylation enrichment [16]
FDNPVCQKTTE [LDLR_Y828_Y828C] | 0.563 | 0.812 | 0.969 | 0.875 | 1.18 | 0.653 | 0.57 | 1.1 | 0.477 | 0.603 | 0.485 | 0.774 | 0.877 | 0.573 | 0.523 | 0.528
LMVFEYMRHGD [NTRK1_Y591] | 1.23 | 1.99 | 1.67 | 1 | 1.08 | 0.847 | 0.5 | 0.845 | 0.426 | 0.931 | 0.646 | 0.756 | 0.457 | 0.604 | 0.34 | 0.614
APAHKYHGGGG [HBD_Y146_L142P] | 0.538 | 0.66 | 0.709 | 0.35 | 0.502 | 0.419 | 0.37 | 0.778 | 0.549 | 0.294 | 0.288 | 0.423 | 0.616 | 0.328 | 0.537 | 0.329
SAVTGYRVNVI [FN1_Y937_D940N] | 0.505 | 0.823 | 0.95 | 0.634 | 0.752 | 0.407 | 0.391 | 0.633 | 0.359 | 0.399 | 0.407 | 0.488 | 0.415 | 0.403 | 0.386 | 0.434
CDDGKYVFVVT [RPS6KA3_Y488_Y483C_YF] | 0.4 | 0.556 | 0.59 | 1.11 | 1.43 | 0.719 | 0.574 | 1.23 | 0.437 | 0.508 | 0.604 | 0.919 | 0.862 | 0.444 | 0.412 | 0.683
LREKVYVSLEA [RXRA_Y397_A398V] | 1.06 | 0.94 | 0.774 | 0.723 | 0.794 | 0.501 | 0.837 | 0.64 | 0.568 | 0.61 | 0.456 | 0.737 | 0.542 | 1.36 | 1.36 | 0.44
IIEDPYYGNDF [ACP1_Y132_S137F] | 0.726 | 0.488 | 0.958 | 1.48 | 1.48 | 0.666 | 3.18 | 1.79 | 1.15 | 1.55 | 0.683 | 2.88 | 1.09 | 2.71 | 4.91 | 1.42
ETGNLYIAKVE [CNTN4_Y180] | 0.276 | 0.533 | 0.705 | 0.757 | 0.89 | 0.52 | 0.405 | 0.896 | 0.336 | 0.479 | 0.522 | 0.62 | 0.635 | 0.448 | 0.391 | 0.441
AASHRYDLGGL [QPRT_Y162] | 0.521 | 0.607 | 0.828 | 0.521 | 0.56 | 0.375 | 0.416 | 0.491 | 0.327 | 0.35 | 0.356 | 0.4 | 0.432 | 0.352 | 0.391 | 0.336
AFPVSYSSSSA [RET_Y687_G691S] | 0.524 | 0.586 | 0.8 | 0.527 | 0.663 | 0.425 | 0.38 | 0.598 | 0.536 | 0.463 | 0.511 | 0.685 | 0.455 | 0.461 | 0.415 | 0.425
KLVQLYGVCTK [BTK_Y461] | 0.882 | 0.981 | 1.07 | 0.773 | 0.887 | 1.43 | 0.439 | 0.848 | 0.892 | 1.91 | 1.33 | 0.532 | 0.686 | 1.25 | 1.25 | 0.439
RIFDYYSARKT [STOX1_Y858_A863T] | 0.534 | 0.849 | 0.701 | 1.18 | 0.665 | 0.439 | 0.503 | 0.531 | 1.37 | 0.982 | 0.521 | 0.48 | 0.259 | 0.402 | 0.473 | 0.441
KGSEGYLAAIF [NF1_Y2503_T2507I_YF] | 0.428 | 0.612 | 0.769 | 0.815 | 0.83 | 0.411 | 0.433 | 0.683 | 0.422 | 0.398 | 0.54 | 0.537 | 0.61 | 0.421 | 0.421 | 0.432
SNKLTYGTMVF [ACOX1_Y275] | 0.504 | 1.05 | 0.925 | 0.863 | 1.02 | 0.604 | 0.459 | 0.773 | 0.495 | 2.9 | 0.505 | 0.573 | 0.836 | 5.28 | 4.65 | 0.631
FGLQAYTEVKT [ALDH2_Y502_YF] | 7.17 | 2.52 | 0.869 | 1.13 | 1.34 | 0.609 | 0.584 | 1.03 | 0.452 | 0.657 | 0.715 | 0.783 | 0.727 | 0.498 | 0.414 | 0.608
NPSFNYEIVNQ [DYNC1H1_Y3379_R3384Q_YF] | 0.724 | 0.579 | 0.78 | 1.13 | 1.47 | 1.44 | 0.763 | 1.43 | 0.492 | 0.602 | 3.9 | 0.847 | 0.586 | 0.524 | 0.408 | 1.12
KILGRYFETSS [PAX2_Y72_G76S_YF] | 0.611 | 1.07 | 1.12 | 0.706 | 0.694 | 0.406 | 0.469 | 0.648 | 0.358 | 0.508 | 0.424 | 0.633 | 0.529 | 0.374 | 0.341 | 0.432
